Measured values as given in patent US20230023093A1 (University of Pennsylvania, published 2023).

Tests used:
[1] = target: T1, HIV-1 Env of clade B strain SF162 on transfected 293T cells (HIV-1 clade B, SF162, UniProt P19550 32-847); assay: binding of day 6 mouse sera to Env expressed in transfected 293T cells (FIG. 12)
T1 construct: whole, on cells

[2] = target: HIV-1 Env of Bal26 (clade B, Tier 1) on pseudotyped virus (HIV-1 clade B, Bal26); assay: cell-based or functional assay
[3] = target: HIV-1 Env of SF162S (clade B, Tier 1) on pseudotyped virus (HIV-1 clade B, SF162S); assay: cell-based or functional assay
[4] = target: HIV-1 Env of the primary isolate Q23Env17 (pOpt-Env-A) (HIV-1 clade A, Q23Env17); assay: cell-based or functional assay
[5] = target: recombinant HIV-1 Env (subtype B; MN) protein (HIV-1 subtype B, MN, UniProt P05877 32-513); assay: binding ELISA, serial dilutions of day 14 mouse sera

Binder	binding result [1]	plateau percent neutralization (TZM-Bl luciferase assay, sera 1:50) [2]	plateau percent neutralization (TZM-Bl luciferase assay, sera 1:50) [3]	plateau percent neutralization (TZM-Bl luciferase assay, sera 1:50) [4]	binding result [5]
HIV-1 Env Fab (VRC01 based Fab generated from pHIV-1 Env Fab) (Fab, V domains shown) VH: QVQLVQSGGQMKKPGESMRISCRASGYEFIDCTLNWIRLAPGKRPEWMGWLKPRGGAVNYARPLQGRVTMTRDVYSDTAFLELRSLTVDDTAVYFCTRGKNCDYNWDFEHWGRGTPVIVSS VL: QIVLTQSPGTLSLSPGETAIISCRTSQYGSLAWYQQRPGQAPRLVIYSGSTRAAGIPDRFSGSRWGPDYNLTISNLESGDFGVYYCQQYEFFGQGTKVQVDI	binds	~62%	~70%	~60%	
CHIKV-Env-Fab (Fab, V domains shown) VH: QVQLVQSGSELKKPGASVKVSCKASGYTLTRYAMTWVRQAPGQGLEWMGWINTYTGNPTYVQGFTGRFVFSLDTSVSTAFLHITSLKAEDTAVYFCAREGGARGFDYWGQGTLVTVSS VL: QSVLTQPPSVSGAPGQRVTISCTGSSSNIGASHDVHWYQQLPGTAPTLLIYVNSNRPSGVPDRFSGSKSGTSASLAITGLQAEDEADYYCQSYDSNLSGSAVFGGGTKLTVLG					no binding
